Target: Nup358-min-GST, human Nup358 residues 2148-2240 (human, UniProt P49792 2148-2240)
Assay: pull-down

Nup358-min-GST, human Nup358 residues 2148-2240, sequence (P49792 2148-2240): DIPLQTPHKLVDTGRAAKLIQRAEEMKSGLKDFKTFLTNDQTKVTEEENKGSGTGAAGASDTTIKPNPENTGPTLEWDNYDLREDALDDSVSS

- binding result: binds
B1: human Bicaudal D2 C-terminal cargo-binding domain, wild type (domain or fragment, UniProt Q8TD16 715-804, looked up)
chain: YENEKAMVTETMMKLRNELKALKEDAATFSSLRAMFATRCDEYITQLDEMQRQLAAAEDEKKTLNSLLRMAIQQKLALTQRLELLELDHE

Reference: paper PMC7437983 (Traffic (Copenhagen, Denmark), 2020)
